The values that follow come from US20250154278A1 (JANUX THERAPEUTICS, published 2025).

The chains are these.
B1: TCE-2 (TROP2 Fab x SP34.185 scFv, non-mutated, scFv on the Fab LC) (bispecific antibody)
light: not shown
heavy: QVQLQQSGSELKKPGASVKVSCKASGYTFTNYGMNWVKQAPGQGLKWMGWINTYTGEPTYTDDFKGRFAFSLDTSVSTAYLQISSLKADDTAVYFCARGGFGSSYWYFDVWGQGSLVTVSSASTKGPSVFPLAPSSKSTSGGTAALGCLVKDYFPEPVTVSWNSGALTSGVHTFPAVLQSSGLYSLSSVVTVPSSSLGTQTYICNVNHKPSNTKVDKKVEPKSC
B2: TCE-5 (TROP2 Fab HC D109A TCE, scFv on the Fab LC) (bispecific antibody)
light: not shown
heavy: B1 heavy with D109A
B3: TCE-3 (TROP2 Fab HC R98A TCE, scFv on the Fab LC) (bispecific antibody)
light: not shown
heavy: B1 heavy with R98A
B4: TCE-1 (TROP2 Fab x SP34.185 scFv, non-mutated, scFv on the Fab HC) (bispecific antibody)
light: DIQLTQSPSSLSASVGDRVSITCKASQDVSIAVAWYQQKPGKAPKLLIYSASYRYTGVPDRFSGSGSGTDFTLTISSLQPEDFAVYYCQQHYITPLTFGAGTKVEIKRTVAAPSVFIFPPSDEQLKSGTASVVCLLNNFYPREAKVQWKVDNALQSGNSQESVTEQDSKDSTYSLSSTLTLSKADYEKHKVYACEVTHQGLSSPVTKSFNRGEC
heavy: not shown
B5: TCE-6 (TROP2 Fab HC R98A TCE, scFv on the Fab HC) (bispecific antibody)
light: B4 light
heavy: not shown
B6: TCE-8 (TROP2 Fab HC D109A TCE, scFv on the Fab HC) (bispecific antibody)
light: B4 light
heavy: not shown
B7: TCE-29 (anti-CD3 scFv S235A, anti-TROP2 wt) (bispecific antibody)
light: B4 light
heavy: not shown
B8: TCE-26 (anti-CD3 scFv L232A, anti-TROP2 wt) (bispecific antibody)
light: B4 light
heavy: not shown
B9: TCE-28 (anti-CD3 scFv Y234A, anti-TROP2 wt) (bispecific antibody)
light: B4 light
heavy: not shown
B10: TCE-25 (anti-CD3 scFv V231A, anti-TROP2 wt) (bispecific antibody)
light: B4 light
heavy: not shown
B11: TCE-22 (anti-CD3 scFv Y111A, anti-TROP2 wt) (bispecific antibody)
light: B4 light
heavy: not shown

Where a chain is given by its changes, count along the chain named. Names and notes keep the numbering of the source.

The first test concerns the target T1, Human TROP2 full length, on tumor cells (HCT116, MDAMB231, NCI-H292) (human, UniProt P09758 31-323).
T1 sequence: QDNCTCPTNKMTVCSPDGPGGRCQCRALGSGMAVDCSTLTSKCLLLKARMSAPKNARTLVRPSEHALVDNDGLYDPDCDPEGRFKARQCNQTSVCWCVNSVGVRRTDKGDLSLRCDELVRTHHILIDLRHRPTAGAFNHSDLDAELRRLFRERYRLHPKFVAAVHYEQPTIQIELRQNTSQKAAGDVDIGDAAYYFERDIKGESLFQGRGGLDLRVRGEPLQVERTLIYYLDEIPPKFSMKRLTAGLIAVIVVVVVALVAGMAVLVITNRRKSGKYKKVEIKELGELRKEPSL
Kind of test: cell-based or functional assay.
As for B1, the “TCE Cytotoxicity EC50, HCT116 + CD8+ T cells” value turned out to be 0.0016 nM and the “TCE Cytotoxicity EC50, MDAMB231 + CD8+ T cells” value is 0.0012 nM.

As for B2, the “TCE Cytotoxicity EC50, H292 + CD8+ T cells” value stood at 0.0002 nM; the “TCE Cytotoxicity EC50, HCT116 + CD8+ T cells” value worked out at 0.0058 nM; the “TCE Cytotoxicity EC50, MDAMB231 + CD8+ T cells” value is 0.0026 nM.

Regarding B3, the “TCE Cytotoxicity EC50, H292 + CD8+ T cells” value is 0.0004 nM; the “TCE Cytotoxicity EC50, HCT116 + CD8+ T cells” value was 0.022 nM; the “TCE Cytotoxicity EC50, MDAMB231 + CD8+ T cells” value amounted to 0.0077 nM.

B4: the “TCE Cytotoxicity EC50, H292 + CD8+ T cells” value came out at 0.0013 nM; the “TCE Cytotoxicity EC50, HCT116 + CD8+ T cells” value was found to be 0.0286 nM; the “TCE Cytotoxicity EC50, MDAMB231 + CD8+ T cells” value was 0.012 nM.

In the case of B5, the “TCE Cytotoxicity EC50, H292 + CD8+ T cells” value was determined as 0.0063 nM; the “TCE Cytotoxicity EC50, HCT116 + CD8+ T cells” value came to 0.143 nM; the “TCE Cytotoxicity EC50, MDAMB231 + CD8+ T cells” value was 0.0772 nM.

In the case of B6, the “TCE Cytotoxicity EC50, H292 + CD8+ T cells” value was found to be 0.004 nM; the “TCE Cytotoxicity EC50, HCT116 + CD8+ T cells” value came out at 0.083 nM; the “TCE Cytotoxicity EC50, MDAMB231 + CD8+ T cells” value is 0.026 nM.

In the next test the target is T2, human CD3 epsilon, biotinylated (human, UniProt P07766 23-126, limits assumed, biotinylated (site not stated)).
T2 construct: Printed in places as CD36, CD38, CD3c or CD3&; also called CD3e-bio; human CD3e-biotin
T2 sequence (P07766 23-126 limits assumed): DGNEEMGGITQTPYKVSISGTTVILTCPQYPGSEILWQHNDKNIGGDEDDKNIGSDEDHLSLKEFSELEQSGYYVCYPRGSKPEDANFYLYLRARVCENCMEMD
The test can be described thus: BLI, CD3e-biotin on sensor (summary). (Biolayer interferometry detects binding as a change in optical thickness at a sensor tip.)
Turning to B7, the “CD3 Octet response” value is 0.68; the “CD3 t1/2” value was found to be 3.64 min; the affinity, expressed as Kd, was 3.41 nM.

Turning to B8, the “CD3 Octet response” value is 0.66; the “CD3 t1/2” value turned out to be 2.64 min; the Kd (in general, the free concentration of one partner at which half of the binding sites on the other are occupied at equilibrium, for simple one-to-one binding) is 8.39 nM.

For the molecule B9, the “CD3 Octet response” value was found to be 0.67; the “CD3 t1/2” value worked out at 1.66 min; the affinity, expressed as Kd, was 11.1 nM.

On to B10, for which the “CD3 t1/2” value was 2.96 min and the Kd stood at 6.26 nM.

The next test has as its target T2, human CD3 epsilon, biotinylated. Kind of test: BLI, CD3e-biotin on sensor, 50 nM TCE.
Procedure: The wild-type (non-mutated) and alanine mutated TCEs were evaluated for their ability to bind CD36 or TROP2 via kinetic binding measurements using biolayer interferometry (BLI). […] The TCEs diluted in buffer were then associated onto the antigen loaded biosensors. Sensors were then transferred to buffer where the TCEs were then dissociated from the sensors. Association and dissociation rates were measured in real time using an Octet® instrument.
On to B11, for which the Response was -0.0009.

On to B7, for which the Kd was 3.41 nM and the Response was determined as 0.682.

Regarding B8, binding was characterised by a dissociation constant (Kd) of 8.39 nM and the Response came out at 0.663.

Molecule B9 had a dissociation constant Kd of 11.1 nM and a Response of 0.674.

Turning to B10, the Kd worked out at 6.26 nM.
